From article PMC11277083 (International Journal of Molecular Sciences, 2024) come the findings set out here.

In this experiment the target is ACE2 protein (recombinant human, CUSABIO no. CSB-MP866317HU) (human, UniProt Q9BYF1 18-740). As to the kind of experiment: SPR; […] (50 ug/mL in sodium acetate pH 4.0, 10 uL/min, 420 s); […]; Biacore T200; […]. Particulars: both partners purified.
Sequence of ACE2 protein (recombinant human, CUSABIO no. CSB-MP866317HU) (Q9BYF1 18-740): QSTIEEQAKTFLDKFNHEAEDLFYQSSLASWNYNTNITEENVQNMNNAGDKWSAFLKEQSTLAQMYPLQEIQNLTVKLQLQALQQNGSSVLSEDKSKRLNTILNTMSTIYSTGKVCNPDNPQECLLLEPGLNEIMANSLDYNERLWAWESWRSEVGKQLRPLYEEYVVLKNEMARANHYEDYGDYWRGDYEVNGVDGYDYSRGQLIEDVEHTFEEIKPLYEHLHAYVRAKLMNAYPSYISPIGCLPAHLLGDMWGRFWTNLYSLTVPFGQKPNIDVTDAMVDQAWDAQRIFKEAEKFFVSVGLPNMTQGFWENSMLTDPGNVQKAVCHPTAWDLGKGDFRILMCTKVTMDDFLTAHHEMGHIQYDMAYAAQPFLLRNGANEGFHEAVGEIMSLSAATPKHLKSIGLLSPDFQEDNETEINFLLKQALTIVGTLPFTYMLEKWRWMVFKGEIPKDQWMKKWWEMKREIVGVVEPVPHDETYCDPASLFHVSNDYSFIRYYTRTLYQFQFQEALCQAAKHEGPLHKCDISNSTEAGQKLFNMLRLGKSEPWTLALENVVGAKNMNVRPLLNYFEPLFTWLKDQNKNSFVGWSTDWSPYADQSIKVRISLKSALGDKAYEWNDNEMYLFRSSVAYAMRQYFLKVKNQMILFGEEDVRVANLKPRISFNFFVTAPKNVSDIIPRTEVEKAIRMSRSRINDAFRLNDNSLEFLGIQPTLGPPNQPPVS

B1: KKCH peptide (peptide)
peptide: KKCHFWPFPW
Turning to B1, the Kd worked out at 624 nM, the off-rate constant (koff) was 0.0958 s⁻¹ and the kon turned out to be 154000 M⁻¹ s⁻¹.

The Kd is a measure of binding affinity in units of concentration. By koff is commonly meant a measure of how fast the partners let go of each other. As a reminder, the kon is the second-order rate constant of association.
